In US20250163127A1 (published 2025):

T1: human TIGIT (human, UniProt Q495A1)
T1 sequence: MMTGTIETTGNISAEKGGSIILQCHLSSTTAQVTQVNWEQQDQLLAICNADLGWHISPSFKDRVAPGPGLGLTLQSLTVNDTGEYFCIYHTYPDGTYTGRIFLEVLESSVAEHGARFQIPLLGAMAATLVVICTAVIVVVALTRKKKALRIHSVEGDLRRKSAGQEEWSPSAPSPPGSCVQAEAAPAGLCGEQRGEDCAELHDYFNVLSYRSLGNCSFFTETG

T2: TIGIT (human, UniProt Q495A1)
T2 sequence: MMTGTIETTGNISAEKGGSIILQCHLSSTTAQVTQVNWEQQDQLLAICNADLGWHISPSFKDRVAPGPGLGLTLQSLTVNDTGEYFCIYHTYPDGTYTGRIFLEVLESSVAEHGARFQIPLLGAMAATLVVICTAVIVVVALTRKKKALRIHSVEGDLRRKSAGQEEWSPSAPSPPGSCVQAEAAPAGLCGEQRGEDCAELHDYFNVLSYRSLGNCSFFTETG

T3: CD80 (human)
T3 chain: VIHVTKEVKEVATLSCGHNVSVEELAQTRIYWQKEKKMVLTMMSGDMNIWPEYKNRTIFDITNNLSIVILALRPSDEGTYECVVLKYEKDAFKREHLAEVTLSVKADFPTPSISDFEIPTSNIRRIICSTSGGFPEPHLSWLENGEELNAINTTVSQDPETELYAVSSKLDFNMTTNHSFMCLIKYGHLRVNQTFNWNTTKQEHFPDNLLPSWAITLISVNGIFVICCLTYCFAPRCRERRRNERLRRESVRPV


Legend:
CD2 [1] = molecular target: CD2 (Homo sapiens (Human), UniProt P06729); assay: flow cytometry, CHO-CD2 cells
human TIGIT = molecular target: T1, human TIGIT; assay: flow cytometry, Jurkat/IL-2/TIGIT cells
TIGIT = molecular target: T2, TIGIT; assay: cell-based or functional assay
CD2 [2] = molecular target: CD2 (human, UniProt P06729); assay: cell-based or functional assay
CD80 = molecular target: T3, CD80; assay: flow cytometry, CHO-CD80 cells
human CTLA-4 = human CTLA-4 (human); assay: flow cytometry, CHO/CTLA-4 cells, 100 nM, anti-Flag
Chain of human CTLA-4 (human) (chain, as listed by the source): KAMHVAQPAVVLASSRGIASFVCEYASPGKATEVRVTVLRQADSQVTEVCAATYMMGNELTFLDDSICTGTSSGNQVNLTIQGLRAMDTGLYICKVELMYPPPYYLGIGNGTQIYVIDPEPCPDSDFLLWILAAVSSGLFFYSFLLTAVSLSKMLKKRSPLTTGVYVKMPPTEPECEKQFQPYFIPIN

human CD28 [3] = molecular target: T4, human CD28 (human, UniProt P10747); assay: flow cytometry, Jurkat cells (endogenous CD28), 100 nM, anti-Flag
human PD-1 [4] = molecular target: T5, human PD-1 (human, UniProt Q15116); assay: flow cytometry, CHO/PD-1 cells, 100 nM, anti-Flag
human CD28 [5] = molecular target: T4, human CD28; assay: flow cytometry, Expi-CD28 cells
human PD-1 [6] = molecular target: T5, human PD-1; assay: flow cytometry, Jurkat/IL-2/PD-1 cells

Row | EC50 (human TIGIT) [nM] | MFI (human CTLA-4) | MFI (human CD28 [3]) | MFI (human PD-1 [4]) | Binder | also measured
1 | 3.4 | – | – | – | CTLA-4 3060-CD155 665-Fc (Fc fusion) KAMHVAQPAVVFASSHGIASFVCEYASPWKATEVRVTVLRQADSQVTEVCAATYMTGNELTFLDDSICTGTSSGNQVNLTIQGLRAMDTGLYICKVEQMYPPPYLLGIGNGTQIYVIDPEPCPDSDGGGGSGGGGSGGGGSWPPPGTGDVVVQAPTQVSGFLGDSVTLPCYLQVPNMEVTHVSQLTWARHGESGSMAVFHQTQGPWYAESKRLEFVAARLGAELRNASLRVFGLRAEDEGNYTCQFVTFPQRSRSVDIWLRVLGSGGGGSEPKSSDKTHTCPPCPAPEAEGAPSVFLFPPKPKDTLMISRTPEVTCVVVDVSHEDPEVKFNWYVDGVEVHNAKTKPREEQYNSTYRVVSVLTVLHQDWLNGKEYKCKVSNKALPAPIEKTISKAKGQPREPQVYTLPPSRDELTKNQVSLTCLVKGFYPSDIAVEWESNGQPENNYKTTPPVLDSDGSFFLYSKLTVDKSRWQQGNVFSCSVMHEALHNHYTQKSLSLSPG | EC50 (CD80): 1.8 nM
2 | 2.3 | – | – | – | CD155 665-ICOSL 2264-ICOSL 2264-CD155 665 (other) WPPPGTGDVVVQAPTQVSGFLGDSVTLPCYLQVPNMEVTHVSQLTWARHGESGSMAVFHQTQGPWYAESKRLEFVAARLGAELRNASLRVFGLRAEDEGNYTCQFVTFPQRSRSVDIWLRVLGGGGSGGGGTGGGGSDTQEKEVRAMVGSDVELSCACPEGSRFDLNDVYVYWQTSESKTVVTYHIPQHSSLEYVDSRYRNRALMSPAGMLRGDFSLRLFNVTPQDEQKFHCLVLSRSLGFQEVLSVEVTLHVAANFSVGGGGSGGGGSGGGGSDTQEKEVRAMVGSDVELSCACPEGSRFDLNDVYVYWQTSESKTVVTYHIPQHSSLEYVDSRYRNRALMSPAGMLRGDFSLRLFNVTPQDEQKFHCLVLSRSLGFQEVLSVEVTLHVAANFSVGSGGSGGGGSGGGGSWPPPGTGDVVVQAPTQVSGFLGDSVTLPCYLQVPNMEVTHVSQLTWARHGESGSMAVFHQTQGPWYAESKRLEFVAARLGAELRNASLRVFGLRAEDEGNYTCQFVTFPQRSRSVDIWLRVLGSGGGGSDYKDDDDKHHHHHH | EC50 (human CD28 [5]): 3.39 nM
3 | 0.6 | – | – | – | CD155 665-CTLA-4 3037-Fc (Fc fusion) WPPPGTGDVVVQAPTQVSGFLGDSVTLPCYLQVPNMEVTHVSQLTWARHGESGSMAVFHQTQGPWYAESKRLEFVAARLGAELRNASLRVFGLRAEDEGNYTCQFVTFPQRSRSVDIWLRVLGGGGSGGGGSGGGGSKAMHVAQPAVVFASSHGIASFVCEYASPWKATEVRVTVLRQADSQVTEVCAATYMTGNELTFLDDSICTGTSSGNQVNLTIQGLRAMDTGLYICKVEQMYPPPYLLGIGNGTQIYVIDPEPCPDSDGSGGGGSEPKSSDKTHTCPPCPAPEAEGAPSVFLFPPKPKDTLMISRTPEVTCVVVDVSHEDPEVKFNWYVDGVEVHNAKTKPREEQYNSTYRVVSVLTVLHQDWLNGKEYKCKVSNKALPAPIEKTISKAKGQPREPQVYTLPPSRDELTKNQVSLTCLVKGFYPSDIAVEWESNGQPENNYKTTPPVLDSDGSFFLYSKLTVDKSRWQQGNVFSCSVMHEALHNHYTQKSLSLSPG | EC50 (CD80): 4.1 nM
4 | – | 79.3 | 89.2 | 20000 | PD-L2 1417-CD80 2616 (other) LFTVTVPKELYIIEQGSNVTLECNFDTGSHVNLGAITASLQKVENDASPHRERATLLEEQLPLGRALFHIPQVQVRDEGQYRCIIIYGDAWDYKYLTLKVKAGSGGSGGGGSGGGGSVIHVTKEVKEVATLSCGHNVSLEELAQTRIYWQKGKKMVLTMMSGDMNIWPEYKNRTIFDITNNLSIVILDPRPSDEGTYECVVLKYEKDAFKREHLAEVDYKDDDDKHHHHHH | –
5 | – | 85 | 94.2 | 13700 | PD-L2 1417-CD80 2617 (other) LFTVTVPKELYIIEQGSNVTLECNFDTGSHVNLGAITASLQKVENDASPHRERATLLEEQLPLGRALFHIPQVQVRDEGQYRCIIIYGDAWDYKYLTLKVKAGSGGSGGGGSGGGGSVIHVTKEVKEVATLSCGHNVSVEELAQTRIYWQKGKKMVLTMMSGDMNIWPEYENRTIFDITNNLSIVILDPRPSDEGTYECVVLKYEKDAFKREHLAEVDYKDDDDKHHHHHH | –
6 | 1.6 | – | – | – | PD-L1 303-CD155 665-CTLA-4 3037-Fc (Fc fusion) FTVTVPKDLYVVEYGSNMTIECKFPVEKQLDLAALIVYWEMEGKDIIQFVHGEEDQKAQHSSYRQRARLLKDQLSLGNAALQITDVKLQDAGVYRCMISYGGGADYKRITVKVNAGGGGSGGGGSGGGGSWPPPGTGDVVVQAPTQVSGFLGDSVTLPCYLQVPNMEVTHVSQLTWARHGESGSMAVFHQTQGPWYAESKRLEFVAARLGAELRNASLRVFGLRAEDEGNYTCQFVTFPQRSRSVDIWLRVLGGGGSGGGGSGGGGSKAMHVAQPAVVFASSHGIASFVCEYASPWKATEVRVTVLRQADSQVTEVCAATYMTGNELTFLDDSICTGTSSGNQVNLTIQGLRAMDTGLYICKVEQMYPPPYLLGIGNGTQIYVIDPEPCPDSDGSGGGGSEPKSSDKTHTCPPCPAPEAEGAPSVFLFPPKPKDTLMISRTPEVTCVVVDVSHEDPEVKFNWYVDGVEVHNAKTKPREEQYNSTYRVVSVLTVLHQDWLNGKEYKCKVSNKALPAPIEKTISKAKGQPREPQVYTLPPSRDELTKNQVSLTCLVKGFYPSDIAVEWESNGQPENNYKTTPPVLDSDGSFFLYSKLTVDKSRWQQGNVFSCSVMHEALHNHYTQKSLSLSPG | EC50 (human CD28 [5]): 4.15 nM; EC50 (CD80): 3.8 nM; EC50 (human PD-1 [6]): 1.3 nM

Continued, binder first:

Row | Binder | EC50 (human TIGIT) [nM] | MFI (human CTLA-4) | MFI (human CD28 [3]) | MFI (human PD-1 [4]) | also measured
7 | CD58 3650-CD155 665-Fc (Fc fusion) SQQIYGVVYGNVTFHVPSNVPLKEVLWKKQKDKVAELENSEFRAFSSFKNRVYLDTVSGSLTIYNLTSSDEDEYEMESPNITDTMKFFLYVLESGGGGSGGGGSGGGGSWPPPGTGDVVVQAPTQVSGFLGDSVTLPCYLQVPNMEVTHVSQLTWARHGESGSMAVFHQTQGPWYAESKRLEFVAARLGAELRNASLRVFGLRAEDEGNYTCQFVTFPQRSRSVDIWLRVLGSGGGGSEPKSSDKTHTCPPCPAPEAEGAPSVFLFPPKPKDTLMISRTPEVTCVVVDVSHEDPEVKFNWYVDGVEVHNAKTKPREEQYNSTYRVVSVLTVLHQDWLNGKEYKCKVSNKALPAPIEKTISKAKGQPREPQVYTLPPSRDELTKNQVSLTCLVKGFYPSDIAVEWESNGQPENNYKTTPPVLDSDGSFFLYSKLTVDKSRWQQGNVFSCSVMHEALHNHYTQKSLSLSPG [CD58 3650-CD155 665-Fc, listing 1 of 2 here] | 1 | – | – | – | EC50 (CD2 [1]): 0.935 nM
8 | CD58 3650-CD155 665-Fc (Fc fusion) SQQIYGVVYGNVTFHVPSNVPLKEVLWKKQKDKVAELENSEFRAFSSFKNRVYLDTVSGSLTIYNLTSSDEDEYEMESPNITDTMKFFLYVLESGGGGSGGGGSGGGGSWPPPGTGDVVVQAPTQVSGFLGDSVTLPCYLQVPNMEVTHVSQLTWARHGESGSMAVFHQTQGPWYAESKRLEFVAARLGAELRNASLRVFGLRAEDEGNYTCQFVTFPQRSRSVDIWLRVLGSGGGGSEPKSSDKTHTCPPCPAPEAEGAPSVFLFPPKPKDTLMISRTPEVTCVVVDVSHEDPEVKFNWYVDGVEVHNAKTKPREEQYNSTYRVVSVLTVLHQDWLNGKEYKCKVSNKALPAPIEKTISKAKGQPREPQVYTLPPSRDELTKNQVSLTCLVKGFYPSDIAVEWESNGQPENNYKTTPPVLDSDGSFFLYSKLTVDKSRWQQGNVFSCSVMHEALHNHYTQKSLSLSPG [CD58 3650-CD155 665-Fc, listing 2 of 2 here] | – | – | – | – | 100 nM IFN-gamma (pg/mL), SEB assay (TIGIT): 6490 pg/mL; 100 nM IFN-gamma (pg/mL), SEB assay (CD2 [2]): 6490 pg/mL
9 | CD80 2616-PD-L2 1417 (other) VIHVTKEVKEVATLSCGHNVSLEELAQTRIYWQKGKKMVLTMMSGDMNIWPEYKNRTIFDITNNLSIVILDPRPSDEGTYECVVLKYEKDAFKREHLAEVGSGGSGGGGSGGGGSLFTVTVPKELYIIEQGSNVTLECNFDTGSHVNLGAITASLQKVENDASPHRERATLLEEQLPLGRALFHIPQVQVRDEGQYRCIIIYGDAWDYKYLTLKVKADYKDDDDKHHHHHH | – | 82.5 | 92.2 | 1520 | –
10 | CD80 2617-PD-L2 1417 (other) VIHVTKEVKEVATLSCGHNVSVEELAQTRIYWQKGKKMVLTMMSGDMNIWPEYENRTIFDITNNLSIVILDPRPSDEGTYECVVLKYEKDAFKREHLAEVGSGGSGGGGSGGGGSLFTVTVPKELYIIEQGSNVTLECNFDTGSHVNLGAITASLQKVENDASPHRERATLLEEQLPLGRALFHIPQVQVRDEGQYRCIIIYGDAWDYKYLTLKVKADYKDDDDKHHHHHH | – | 75.5 | 110 | 1390 | –
11 | CD155 665-CD58 3650-Fc (Fc fusion) WPPPGTGDVVVQAPTQVSGFLGDSVTLPCYLQVPNMEVTHVSQLTWARHGESGSMAVFHQTQGPWYAESKRLEFVAARLGAELRNASLRVFGLRAEDEGNYTCQFVTFPQRSRSVDIWLRVLGGGGSGGGGSGGGGSSQQIYGVVYGNVTFHVPSNVPLKEVLWKKQKDKVAELENSEFRAFSSFKNRVYLDTVSGSLTIYNLTSSDEDEYEMESPNITDTMKFFLYVLESGSGGGGSEPKSSDKTHTCPPCPAPEAEGAPSVFLFPPKPKDTLMISRTPEVTCVVVDVSHEDPEVKFNWYVDGVEVHNAKTKPREEQYNSTYRVVSVLTVLHQDWLNGKEYKCKVSNKALPAPIEKTISKAKGQPREPQVYTLPPSRDELTKNQVSLTCLVKGFYPSDIAVEWESNGQPENNYKTTPPVLDSDGSFFLYSKLTVDKSRWQQGNVFSCSVMHEALHNHYTQKSLSLSPG | 0.733 | – | – | – | EC50 (CD2 [1]): 0.845 nM
